This is an account of results in patent US20220402983A1 (Janssen / Centocor, published 2022).

*1 amine or outer side, *2 acyl side, *3 side chain or, on linkers, in order; H or OH if unused. Bridges are numbered along the chain shown (N, C = ends). Where no end group is shown, it is not given here. [ ]: non-standard residue; d: D form. dPhe(3,4-diOMe) = D-Phe with 3,4-dimethoxy, COc1ccc(C[C@@H](N[*:1])C(=O)[*:2])cc1OC; αMe2Nal = alpha-methyl-2-Nal, C[C@@](Cc1ccc2ccccc2c1)(N[*:1])C(=O)[*:2]; Phe(3,4-(OMe)2) = COc1ccc(C[C@H](N)C(=O)O)cc1OC; Trp(5-F) = N[C@@H](Cc1c[nH]c2ccc(F)cc12)C(=O)O; Trp(7-Me) = Cc1cccc2c(C[C@H](N)C(=O)O)c[nH]c12; 2Nal = N[C@@H](Cc1ccc2ccccc2c1)C(=O)O; AEF = NCCOc1ccc(C[C@H](N)C(=O)O)cc1; αMeF = C[C@](N)(Cc1ccccc1)C(=O)O; αMeE = C[C@](N)(CCC(=O)O)C(=O)O; β3hF = N[C@H](CC(=O)O)Cc1ccccc1; Pen = CC(C)(S)[C@H](N)C(=O)O; αMeK = C[C@](N)(CCCCN)C(=O)O; αMeC = C[C@](N)(CS)C(=O)O; dDap = NC[C@@H](N)C(=O)O; Thp = NC1(C(=O)O)CCOCC1; Abu = CC[C@H](N)C(=O)O; Aib = CC(C)(N)C(=O)O; Ahx = NCCCCCC(=O)O

This experiment deals with T1, human IL-23R (interleukin-23 receptor) (human, UniProt Q5VWK5 24-629).
T1 sequence (looked up): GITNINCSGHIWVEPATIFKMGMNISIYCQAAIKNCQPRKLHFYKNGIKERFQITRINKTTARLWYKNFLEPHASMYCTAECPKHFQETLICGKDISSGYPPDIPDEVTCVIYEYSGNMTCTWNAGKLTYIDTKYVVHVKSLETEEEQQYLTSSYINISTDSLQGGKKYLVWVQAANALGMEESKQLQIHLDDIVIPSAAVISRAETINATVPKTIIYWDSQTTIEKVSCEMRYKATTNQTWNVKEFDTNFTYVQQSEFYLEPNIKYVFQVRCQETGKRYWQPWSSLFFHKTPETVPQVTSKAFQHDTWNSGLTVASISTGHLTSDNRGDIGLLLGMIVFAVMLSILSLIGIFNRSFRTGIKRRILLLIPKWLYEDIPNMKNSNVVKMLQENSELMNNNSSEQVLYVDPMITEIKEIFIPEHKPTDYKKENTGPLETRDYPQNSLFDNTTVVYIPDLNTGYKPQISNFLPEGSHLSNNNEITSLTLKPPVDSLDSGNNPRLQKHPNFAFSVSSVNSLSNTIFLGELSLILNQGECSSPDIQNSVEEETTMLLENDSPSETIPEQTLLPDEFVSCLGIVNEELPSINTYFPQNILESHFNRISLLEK
As to the kind of experiment: cell-based or functional assay.

B1: Compound No. 78 (peptide)
peptide: Ac-[dR][Abu]QTWQC[AEF][2Nal][Thp][αMeE]N[Phe(3,4-(OMe)2)]-NH2
modifications: thioether 2-7
For B1, the “PBMC pSTAT3 IC50 (nM)” value was 31 nM.

B2: Compound No. 85 (peptide)
peptide: [dR][Abu]QTWQC[AEF][2Nal][Thp]EN[αMeF]-NH2
modifications: thioether 2-7; not fully specified (N-terminus); printed as pr-[(D)Arg]-[Abu]-Q-T-W-Q-[Cys]-Phe[4-(2-aminoethoxy)]-[2-Nal]-[THP]-E-N-[a-MePhe]-NH2
Consider B2, for which the “PBMC pSTAT3 IC50 (nM)” value was found to be 7.6 nM.

B3: Compound No. 81 (peptide)
peptide: Ac-[dR][Abu]QTWQC[AEF][2Nal][Thp][αMeE]N[Trp(5-F)]-NH2
modifications: thioether 2-7
With B3, the “PBMC pSTAT3 IC50 (nM)” value worked out at 30 nM.

B4: Compound No. 74 (peptide)
peptide: Ac-[Pen]N[dD][Trp(7-Me)]K(Ac)[Pen][AEF][2Nal][αMeK]K(Ac)N[dL]-NH2
modifications: disulfide 1-6
SMILES: CC(=O)NCCCC[C@@H]1NC(=O)[C@H](Cc2c[nH]c3c(C)cccc23)NC(=O)[C@@H](CC(=O)O)NC(=O)[C@H](CC(N)=O)NC(=O)[C@@H](NC(C)=O)C(C)(C)SSC(C)(C)[C@@H](C(=O)N[C@@H](Cc2ccc(OCCN)cc2)C(=O)N[C@@H](Cc2ccc3ccccc3c2)C(=O)N[C@@](C)(CCCCN)C(=O)N[C@@H](CCCCNC(C)=O)C(=O)N[C@@H](CC(N)=O)C(=O)N[C@H](CC(C)C)C(N)=O)NC1=O
On to B4, for which the “pStat3 HTRF (nM), IC50, DB cells IL23R pSTAT3 cell assay” value (“pStat3 HTRF (nM), IC50” below) is 73.1 nM.

B5: Compound No. 73 (peptide)
peptide: Ac-[Pen]N[dK][Trp(7-Me)]K(Ac)[Pen][AEF][2Nal][αMeK]K(Ac)N[dL]-NH2
modifications: disulfide 1-6
SMILES: CC(=O)NCCCC[C@@H]1NC(=O)[C@H](Cc2c[nH]c3c(C)cccc23)NC(=O)[C@@H](CCCCN)NC(=O)[C@H](CC(N)=O)NC(=O)[C@@H](NC(C)=O)C(C)(C)SSC(C)(C)[C@@H](C(=O)N[C@@H](Cc2ccc(OCCN)cc2)C(=O)N[C@@H](Cc2ccc3ccccc3c2)C(=O)N[C@@](C)(CCCCN)C(=O)N[C@@H](CCCCNC(C)=O)C(=O)N[C@@H](CC(N)=O)C(=O)N[C@H](CC(C)C)C(N)=O)NC1=O
For B5, the “pStat3 HTRF (nM), IC50” value is 51.1 nM.

B6: Compound No. 87 (peptide)
peptide: XNTXQXFXKKNX
modifications: Ac-[Pen]-N-T-[W(7-Me)]-Q-[Pen]-Phe[4-(2-aminoethoxy)]-[2-Nal]-[a-MeLys]-[Lys(Ac)]-N-[THP]-NH2; cyclized: Pen-Pen disulfide bond
For B6, the “PBMC pSTAT3 IC50 (nM)” value worked out at 3.6 nM.

B7: Compound No. 70 (peptide)
peptide: Ac-[Pen]NT[Trp(7-Me)]K(Ac)[Pen][AEF][2Nal][αMeK]K(Ac)N[Aib][Ahx]-NH2
modifications: disulfide 1-6
SMILES: CC(=O)NCCCC[C@@H]1NC(=O)[C@H](Cc2c[nH]c3c(C)cccc23)NC(=O)[C@H]([C@@H](C)O)NC(=O)[C@H](CC(N)=O)NC(=O)[C@@H](NC(C)=O)C(C)(C)SSC(C)(C)[C@@H](C(=O)N[C@@H](Cc2ccc(OCCN)cc2)C(=O)N[C@@H](Cc2ccc3ccccc3c2)C(=O)N[C@@](C)(CCCCN)C(=O)N[C@@H](CCCCNC(C)=O)C(=O)N[C@@H](CC(N)=O)C(=O)NC(C)(C)C(=O)NCCCCCC(N)=O)NC1=O
Turning to B7, the “pStat3 HTRF (nM), IC50” value was 1.22 nM.

B8: Compound No. 71 (peptide)
peptide: Ac-[Pen]NT[Trp(7-Me)]K(Ac)[Pen][AEF][2Nal][αMeK]K(Ac)N[Aib][β3hF]-NH2
modifications: disulfide 1-6
SMILES: CC(=O)NCCCC[C@@H]1NC(=O)[C@H](Cc2c[nH]c3c(C)cccc23)NC(=O)[C@H]([C@@H](C)O)NC(=O)[C@H](CC(N)=O)NC(=O)[C@@H](NC(C)=O)C(C)(C)SSC(C)(C)[C@@H](C(=O)N[C@@H](Cc2ccc(OCCN)cc2)C(=O)N[C@@H](Cc2ccc3ccccc3c2)C(=O)N[C@@](C)(CCCCN)C(=O)N[C@@H](CCCCNC(C)=O)C(=O)N[C@@H](CC(N)=O)C(=O)NC(C)(C)C(=O)N[C@H](CC(N)=O)Cc2ccccc2)NC1=O
With B8, the “pStat3 HTRF (nM), IC50” value amounted to 3.39 nM.

B9: Compound No. 83 (peptide)
peptide: [dR][Abu]QTWQ[αMeC][AEF][2Nal][Thp]EN[αMeF]-NH2
modifications: thioether 2-7; not fully specified (N-terminus); printed as pr-[(D)Arg]-[Abu]-Q-T-W-Q-[aMeCys]-Phe[4-(2-aminoethoxy)]-[2-Nal]-[THP]-E-N-[a-MePhe]-NH2
With B9, the “PBMC pSTAT3 IC50 (nM)” value was found to be 33 nM.

B10: Compound No. 80 (peptide)
peptide: Ac-[dR][Abu]QTWQC[AEF][2Nal][Thp]EN[αMe2Nal]-NH2
modifications: thioether 2-7
On to B10, for which the “PBMC pSTAT3 IC50 (nM)” value worked out at 46 nM.

B11: Compound No. 82 (peptide)
peptide: Ac-[Pen]QTWK(Ac)[Pen][AEF][2Nal][αMeK]K(Ac)N[αMeF]-NH2
modifications: disulfide 1-6
SMILES: CC(=O)NCCCC[C@@H]1NC(=O)[C@H](Cc2c[nH]c3ccccc23)NC(=O)[C@H]([C@@H](C)O)NC(=O)[C@H](CCC(N)=O)NC(=O)[C@@H](NC(C)=O)C(C)(C)SSC(C)(C)[C@@H](C(=O)N[C@@H](Cc2ccc(OCCN)cc2)C(=O)N[C@@H](Cc2ccc3ccccc3c2)C(=O)N[C@@](C)(CCCCN)C(=O)N[C@@H](CCCCNC(C)=O)C(=O)N[C@@H](CC(N)=O)C(=O)N[C@@](C)(Cc2ccccc2)C(N)=O)NC1=O
As to B11, the “PBMC pSTAT3 IC50 (nM)” value stood at 54 nM.

B12: Compound No. 84 (peptide)
peptide: Ac-[Pen]QTWK(Ac)[Pen][AEF][2Nal][αMeK]K(Ac)N[Thp]-NH2
modifications: disulfide 1-6
SMILES: CC(=O)NCCCC[C@@H]1NC(=O)[C@H](Cc2c[nH]c3ccccc23)NC(=O)[C@H]([C@@H](C)O)NC(=O)[C@H](CCC(N)=O)NC(=O)[C@@H](NC(C)=O)C(C)(C)SSC(C)(C)[C@@H](C(=O)N[C@@H](Cc2ccc(OCCN)cc2)C(=O)N[C@@H](Cc2ccc3ccccc3c2)C(=O)N[C@@](C)(CCCCN)C(=O)N[C@@H](CCCCNC(C)=O)C(=O)N[C@@H](CC(N)=O)C(=O)NC2(C(N)=O)CCOCC2)NC1=O
For B12, the “PBMC pSTAT3 IC50 (nM)” value worked out at 54 nM.

B13: Compound No. 72 (peptide)
peptide: Ac-[Pen]N[dDap][Trp(7-Me)]K(Ac)[Pen][AEF][2Nal][αMeK]K(Ac)N[dL]-NH2
modifications: disulfide 1-6
SMILES: CC(=O)NCCCC[C@@H]1NC(=O)[C@H](Cc2c[nH]c3c(C)cccc23)NC(=O)[C@@H](CN)NC(=O)[C@H](CC(N)=O)NC(=O)[C@@H](NC(C)=O)C(C)(C)SSC(C)(C)[C@@H](C(=O)N[C@@H](Cc2ccc(OCCN)cc2)C(=O)N[C@@H](Cc2ccc3ccccc3c2)C(=O)N[C@@](C)(CCCCN)C(=O)N[C@@H](CCCCNC(C)=O)C(=O)N[C@@H](CC(N)=O)C(=O)N[C@H](CC(C)C)C(N)=O)NC1=O
For B13, the “pStat3 HTRF (nM), IC50” value is 52.6 nM.

B14: Compound No. 79 (peptide)
peptide: Ac-[dR][Abu]QTWQC[AEF][2Nal][Thp][αMeE]N[dPhe(3,4-diOMe)]-NH2
modifications: thioether 2-7
In the case of B14, the “PBMC pSTAT3 IC50 (nM)” value was determined as 25 nM.
